From article doi:10.1101/2025.06.10.658980, “Structures reveal how the Cas1-2/3 integrase captures, delivers, and integrates foreign DNA into CRISPR loci” (bioRxiv, 2025)

B1: Cas1 (type I-F, Pseudomonas aeruginosa PA14), StrepII-tagged (enzyme)
chain: MDDISPSELKTILHSKRANLYYLQHCRVLVNGGRVEYVTDEGRHSHYWNIPIANTTSLLLGTGTSITQAAMRELARAGVLVGFCGGGGTPLFSANEVDVEVSWLTPQSEYRPTEYLQRWVGFWFDEEKRLVAARHFQRARLERIRHSWLEDRVLRDAGFAVDATALAVAVEDSARALEQAPNHEHLLTEEARLSKRLFKLAAQATRYGEFVRAKRGSGGDPANRFLDHGNYLAYGLAATATWVLGIPHGLAVLHGKTRRGGLVFDVADLIKDSLILPQAFLSAMRGDEEQDFRQACLDNLSRAQALDFMIDTLKDVAQRSTVSA
notes: Four Cas1 subunits (two homodimers) stand in the Cas1-2/3 heterohexamer; also called StrepII-tagged Cas1; Cas1a; source: E. coli BL21(DE3), co-expressed with Cas2/3 from a single plasmid; in lysate, and purified (StrepTrap HP, Superdex 200); not shown: StrepII, N-terminal, kept

What was measured:
[1] = biological target: B1; experiment: SEC; affinity-purified Cas1-2/3 on Superdex 200 in 10 mM HEPES pH 7.5, 500 mM potassium glutamate, 10% glycerol; single peak, estimated ~380 kDa; settings: both partners purified
[2] = biological target: the molecule itself; experiment: cryo-EM structure; Cas1-2/3 capture complex without nucleic acid, 12.8 uM, 3.3 Å

Row | Binder | stoichiometry N [1] | stoichiometry N [2]
1 | Cas2/3 fusion protein (type I-F, Pseudomonas aeruginosa PA14), untagged (enzyme, Two Cas2/3 subunits stand in the Cas1-2/3 heterohexamer, joined through the Cas2 homodimer; also called Cas3; Cas3a; source: E. coli BL21(DE3), co-expressed with StrepII-Cas1 from a single plasmid; in lysate, and purified with Cas1 (StrepTrap HP, Superdex 200)) MNILLVSQCEKRALSETRRILDQFAERRGERTWQTPITQAGLDTLRRLLKKSARRNTAVACHWIRGRDHSELLWIVGDASRFNAQGAVPTNRTCRDILRKEDENDWHSAEDIRLLTVMAALFHDIGKASQAFQAKLRNRGKPMADAYRHEWVSLRLFEAFVGPGSSDEDWLRRLADKRETGDAWLSQLARDDRQSAPPGPFQKSRLPPLAQAVGWLIVSHHRLPNGDHRGSASLARLPAPIQSQWCGARDADAKEKAACWQFPHGLPFASAHWRARTALCAQSMLERPGLLARGPALLHDSYVMHVSRLILMLADHHYSSLPADSRLGDPNFPLHANTDRDSGKLKQRLDEHLLGVALHSRKLAGTLPRLERQLPRLARHKGFTRRVEQPRFRWQDKAYDCAMACREQAMEHGFFGLNLASTGCGKTLANGRILYALADPQRGARFSIALGLRSLTLQTGQAYRERLGLGDDDLAILVGGSAARELFEKQQERLERSGSESAQELLAENSHVHFAGTLEDGPLREWLGRNSAGNRLLQAPILACTIDHLMPASESLRGGHQIAPLLRLMTSDLVLDEVDDFDIDDLPALSRLVHWAGLFGSRVLLSSATLPPALVQGLFEAYRSGREIFQRHRGAPGRATEIRCAWFDEFSSQSSAHGAVTSFSEAHATFVAQRLAKLEQLPPRRQAQLCTVHAAGEARPALCRELAGQMNTWMADLHRCHHTEHQGRRISFGLLRLANIEPLIELAQAILAQGAPEGLHVHLCVYHSRHPLLVRSAIERQLDELLKRSDDDAAALFARPTLAKALQASTERDHLFVVLASPVAEVGRDHDYDWAIVEPSSMRSIIQLAGRIRRHRSGFSGEANLYLLSRNIRSLEGQNPAFQRPGFETPDFPLDSHDLHDLLDPALLARIDASPRIVEPFPLFPRSRLVDLEHRRLRALMLADDPPSSLLGVPLWWQTPASLSGALQTSQPFRAGAKERCYALLPDEDDEERLHFSRYEEGTWSNQDNLLRNLDLTYGPRIQTWGTVNYREELVAMAGREDLDLRQCAMRYGEVRLRENTQGWSYHPYLGFKKYN | 2 Cas1 per Cas2/3 (4:2) | 2
2 | B1 | – | 2
